The supplement of paper PMC7877785
± gives the uncertainty stated by the source.

Assay: self-splicing fitness, log relative to wild type (ln ratio); higher = more splicing; Tetrahymena group I intron in knt gene, E. coli kanamycin selection, DiMSum; sequences stand for … in CUCUCU…GGAGGGAAAAGUUAUCAGGCAUGCACCUGGUAGCUAGUCUUUAAACCAAUAGAUUGCAUCGGUUUAAAAGGCAAGACCGUCAAAUUGCGGGAAAGGGGUCAACAGCCGUUCAGUACCAAGUCUCAGGGGAAACUUUGAGAUGGCCUUGCAAAGGGUAUGGUAAUAAGCUGACGGACAUGGUCCUAACCACGCAGCCAAGUCCUAAGUCAACAGAUCUUCUGUUGAUAUGGAUGCAGUUCACAGACUAAAUGUCGGUCGGGGAAGAUGUAUUCUUCUCAUAAGAUAUAGUCGGACCUCUCCUUAAUGGGAGCUAGCGGAUGAAGUGAUGCAACACUGGAGCCGCUGGGAACUAAUUUGUAUGCGAAAGUAUAUUGAUUAGUUUUGGAGUACUCGUGGUCG
In short: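 DiMSum derived fitness as the error-weighted combination of fold changes across replicates, kanamycin versus no kanamycin, normalised to wild type. E. coli BL21(DE3) held the library, which randomised all eight P1ex-region intron nucleotides within the knt kanamycin-resistance gene on pET-22b(+). Six replicate transformations grew overnight at 37°C or 30°C on LB agar with or without 25 μg/mL kanamycin, also containing 100 μg/mL carbenicillin, 50 μM IPTG and 0.2% rhamnose, and pooled colonies were amplicon-sequenced on an Illumina HiSeq 2500.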

## AUCGAGCAAUAUUACGUCAG
30 °C
  self-splicing fitness (ln): -3.36 ± 0.21
37 °C
  self-splicing fitness (ln): -2.99 ± 0.22

## GAGUAGCAAUAUUACGACGU
30 °C
  self-splicing fitness (ln): 0.156 ± 0.093
37 °C
  self-splicing fitness (ln): 0.524 ± 0.11

## AGAUAGCAAUAUUACGCACA
30 °C
  self-splicing fitness (ln): -0.827 ± 0.07
37 °C
  self-splicing fitness (ln): -0.123 ± 0.087

## GGACAGCAAUAUUACGCGGC
30 °C
  self-splicing fitness (ln): -3.12 ± 0.22
37 °C
  self-splicing fitness (ln): -2.76 ± 0.34

## ACCCAGCAAUAUUACGACUA
30 °C
  self-splicing fitness (ln): -0.803 ± 0.082
37 °C
  self-splicing fitness (ln): -0.765 ± 0.086

## UUUUAGCAAUAUUACGGUAA
30 °C
  self-splicing fitness (ln): -1.94 ± 0.2
37 °C
  self-splicing fitness (ln): -0.884 ± 0.14

## GGAGAGCAAUAUUACGUAGA
30 °C
  self-splicing fitness (ln): -4.01 ± 0.2
37 °C
  self-splicing fitness (ln): -2.05 ± 0.15

## CUUUAGCAAUAUUACGGCAG
30 °C
  self-splicing fitness (ln): -0.944 ± 0.12
37 °C
  self-splicing fitness (ln): -0.552 ± 0.14

## AUCUAGCAAUAUUACGUUGG
30 °C
  self-splicing fitness (ln): -3.4 ± 0.19
37 °C
  self-splicing fitness (ln): -1.88 ± 0.19

## GGCUAGCAAUAUUACGUGGA
30 °C
  self-splicing fitness (ln): -1.81 ± 0.14
37 °C
  self-splicing fitness (ln): -0.667 ± 0.12

## CGCCAGCAAUAUUACGUCUC
30 °C
  self-splicing fitness (ln): -4.51 ± 0.23
37 °C
  self-splicing fitness (ln): -2.45 ± 0.16

## CACGAGCAAUAUUACGGAUG
30 °C
  self-splicing fitness (ln): -3.35 ± 0.16
37 °C
  self-splicing fitness (ln): -2.47 ± 0.16

## AACUAGCAAUAUUACGGCGG
30 °C
  self-splicing fitness (ln): -1.21 ± 0.087
37 °C
  self-splicing fitness (ln): -0.787 ± 0.11

## CGUGAGCAAUAUUACGACAU
30 °C
  self-splicing fitness (ln): -3.809 ± 0.03
37 °C
  self-splicing fitness (ln): -2.19 ± 0.039

## UCGCAGCAAUAUUACGUUUC
30 °C
  self-splicing fitness (ln): -3.87 ± 0.2
37 °C
  self-splicing fitness (ln): -1.66 ± 0.12

## UCAAAGCAAUAUUACGCAUU
30 °C
  self-splicing fitness (ln): -3.2 ± 0.4
37 °C
  self-splicing fitness (ln): -3.34 ± 0.37

## CCCAAGCAAUAUUACGCGGA
30 °C
  self-splicing fitness (ln): -1.6 ± 0.093
37 °C
  self-splicing fitness (ln): -0.459 ± 0.097

## AAAAAGCAAUAUUACGACCC
30 °C
  self-splicing fitness (ln): 0.000517 ± 0.17
37 °C
  self-splicing fitness (ln): 0.616 ± 0.24

## CCAUAGCAAUAUUACGAAAA
30 °C
  self-splicing fitness (ln): -3.02 ± 0.29

## GCGCAGCAAUAUUACGCUCA
30 °C
  self-splicing fitness (ln): -0.576 ± 0.14
37 °C
  self-splicing fitness (ln): 0.238 ± 0.16

## AUUCAGCAAUAUUACGCUUA
30 °C
  self-splicing fitness (ln): -0.623 ± 0.078
37 °C
  self-splicing fitness (ln): -0.332 ± 0.091

## AGGUAGCAAUAUUACGAGUA
30 °C
  self-splicing fitness (ln): -2.415 ± 0.023
37 °C
  self-splicing fitness (ln): -1.52 ± 0.035

## UUUCAGCAAUAUUACGUUUA
30 °C
  self-splicing fitness (ln): -1.34 ± 0.11
37 °C
  self-splicing fitness (ln): -0.334 ± 0.13

## UUUCAGCAAUAUUACGAGAU
37 °C
  self-splicing fitness (ln): -2.72 ± 0.48

## GCGUAGCAAUAUUACGUUAC
30 °C
  self-splicing fitness (ln): -2.56 ± 0.23
37 °C
  self-splicing fitness (ln): -2.37 ± 0.32

## UUGUAGCAAUAUUACGAGAG
30 °C
  self-splicing fitness (ln): -2.07 ± 0.3

## CUGGAGCAAUAUUACGCGCU
30 °C
  self-splicing fitness (ln): -3.54 ± 0.47

## UUAAAGCAAUAUUACGUCCU
30 °C
  self-splicing fitness (ln): -0.682 ± 0.081
37 °C
  self-splicing fitness (ln): -0.281 ± 0.096

## AAGUAGCAAUAUUACGUCCC
30 °C
  self-splicing fitness (ln): -0.0634 ± 0.3
37 °C
  self-splicing fitness (ln): -0.156 ± 0.24

## UAAUAGCAAUAUUACGUAAC
37 °C
  self-splicing fitness (ln): -2.03 ± 0.38

## GUCCAGCAAUAUUACGGGCU
30 °C
  self-splicing fitness (ln): -2.54 ± 0.31

## AGAAAGCAAUAUUACGUCAC
30 °C
  self-splicing fitness (ln): -3.52 ± 0.3
37 °C
  self-splicing fitness (ln): -2.61 ± 0.38

## AGAAAGCAAUAUUACGUACC
30 °C
  self-splicing fitness (ln): -0.284 ± 0.087
37 °C
  self-splicing fitness (ln): 0.446 ± 0.12

## CUUCAGCAAUAUUACGAUGG
30 °C
  self-splicing fitness (ln): -2.3 ± 0.11
37 °C
  self-splicing fitness (ln): -1.38 ± 0.15

## GGAGAGCAAUAUUACGGCUC
30 °C
  self-splicing fitness (ln): -1.76 ± 0.2
37 °C
  self-splicing fitness (ln): -2.82 ± 0.34
